Test results from article doi:10.1101/131276.
Values belong to the substance of their own block, whether it stands above or below them.

What was measured:
Assay in all cases: non-reducing SDS-PAGE and Western blot
[1] = molecular target: Gbb15 made by cleavage at the atypical S0 site (from gbb mS1 or gbb mNSmS1), HA-tagged (Drosophila)
[2] = molecular target: proGbb, the uncleaved Gbb proprotein from gbb mNSmS1, HA-tagged (Drosophila)
[3] = molecular target: Gbb38 from gbb mS1, HA-tagged (Drosophila)
[4] = molecular target: proGbb, the uncleaved Gbb proprotein from gbb mNSmS1mS0, HA-tagged (Drosophila)

Chain of Gbb15 made by cleavage at the atypical S0 site (from gbb mS1 or gbb mNSmS1), HA-tagged (ligand) (P27091 37-455): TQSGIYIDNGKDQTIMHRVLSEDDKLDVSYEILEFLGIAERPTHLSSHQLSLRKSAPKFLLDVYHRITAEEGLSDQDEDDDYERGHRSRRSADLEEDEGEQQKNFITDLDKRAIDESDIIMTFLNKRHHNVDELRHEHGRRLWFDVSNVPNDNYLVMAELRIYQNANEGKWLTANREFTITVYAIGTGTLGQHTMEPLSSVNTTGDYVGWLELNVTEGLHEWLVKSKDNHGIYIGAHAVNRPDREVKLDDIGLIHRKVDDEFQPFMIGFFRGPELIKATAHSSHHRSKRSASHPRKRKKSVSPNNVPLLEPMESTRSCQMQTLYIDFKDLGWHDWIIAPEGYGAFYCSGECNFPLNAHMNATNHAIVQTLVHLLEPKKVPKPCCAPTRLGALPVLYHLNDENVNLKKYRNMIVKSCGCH

stoichiometry N [1]: 2
Substance: Gbb15 made by cleavage at the atypical S0 site (from gbb mS1 or gbb mNSmS1), HA-tagged (ligand)

stoichiometry N [2]: 2
Substance: proGbb, the uncleaved Gbb proprotein from gbb mNSmS1, HA-tagged (natural protein)

stoichiometry N [3]: 2
Substance: Gbb38 from gbb mS1, HA-tagged (ligand)

stoichiometry N [4]: 2
Substance: proGbb, the uncleaved Gbb proprotein from gbb mNSmS1mS0, HA-tagged (natural protein)
